The values below come from publication PMC12459221, “A flexible, allosteric loop regulates protein activity and rewires electrostatics” (Protein Science : A Publication of the Protein Society, 2025).

Substrate in this series: C=C(O[C@@H]1C=C(C(=O)O)C=C[C@H]1O)C(=O)O
The series is described as follows: enzyme kinetics, triplicate. As to conditions: pH 6.5 or 7.5, 22 °C, 150 mM NaCl. Type of series: biochemical, Saccharomyces cerevisiae. The text has this:
enzyme kinetics, triplicate on chorismate mutase (CM) | a similar mutation (E219A)

The term Km denotes the concentration of substrate that gives half-maximal velocity.

B1: chorismate mutase (CM) (Saccharomyces cerevisiae S288C; E219A) (protein)
chain: MDFTKPETVLNLQNIRDELVRMEDSIIFKFIERSHFATCPSVYEANHPGLEIPNFKGSFLDWALSNLEIAHSRIRRFESPDETPFFPDKIQKSFLPSINYPQILAPYAPEVNYNDKIKKVYIEKIIPLISKRDGDDKNNFGSVATRDIECLQSLSRRIHFGKFVAEAKFQSDIPLYTKLIKSKDVEGIMKNITNSAVEEKILERLTKKAEVYGVDPTNASGERRITPEYLVKIYKEIVIPITKEVEVEYLLRRLEE
notes: TEV-cleavable tagged CM in pET21a, E. coli BL21*(DE3); 60 kDa homodimer
Take B1: the Km turned out to be 600 ± 200 µM.
